The target in the first experiment is biotinylated OprF1 synthetic peptide (P. aeruginosa). Kind of experiment: pooled monoclonal phages pulled down on biotinylated OprF1 in Bushnell-Haas with 1% Jet-A; unamplified eluate, share of 30 sequenced clones.
“M13 phage displaying the PPKINIM peptide”: the relative percent abundance is 3%.

Another experiment has as its target biotinylated Opr86 extracellular loop synthetic peptide. Put plainly: solution biopanning on biotinylated Opr86 loop peptide in Bushnell-Haas pH 8.5 with 1% Jet-A, three rounds; share of clones.
Turning to “M13 phage displaying OPP1 (PRIRKSH) (peptide)”, the % Abundance came to 3%.

As to “M13 phage displaying OPP2 (MHNLNLL) (peptide)”, the % Abundance turned out to be 2%.

Substance “M13 phage displaying OPP3 (LPSTIHR) (peptide)” came in with a % Abundance of 2%.

In turn, “M13 phage displaying OPP4 (LRPLMNR) (peptide)” had a % Abundance of 3%.

“M13 phage displaying OPP5 (IITMKRR) (peptide)” showed a % Abundance of 3%.

“M13 phage displaying OPP6 (RKKSRIR) (peptide)”: the % Abundance is 2%.

Source of the values: patent publication US20180224449A1.
